Data on 40 sequences can be found in the nanobody polyreactivity screen of Harvey et al. (2022).

A short description of this data set: yeast display, Sf9 membrane polyspecificity reagent, FACS + sequencing; frameworks hold sequencing errors. The method, boiled down:
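Using colony PCR, genes from sorted yeast display clones were amplified, then sequenced on MiSeq at 2 × 250 and filtered by CDR length. The clones had been stained with 10% biotinylated, detergent-solubilized Sf9 membrane reagent for 1 hour at 4 °C and sorted by FACS into low and high (top ~1%) gates on anti-HA and streptavidin fluorescence. Polyreactivity labels come from the gate of origin.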
For the sequence “QVQLVESGGGLVQAGGSLRLSCAASGSIFSIYAMGWYRQAPGKERELVAAISSGGSTYADSVKGRFTISRDNAKNTVYLQMNSLKPEDTAVYYCAADRRGYRGYDYWGQGTQVTVSS”, the “polyreactivity (PSR sort gate)” value is recorded as “low polyreactivity”.

In the case of “QVQIVESGGGLVQAGGSLRLTCAASGLISTYYVMGWYRQAPGKERELVAAIRASDASTYYADSVKGRFTISRDNAKNTVYLQMNSLKPEDTAVYYCATDSYYVDDTEYDYWGQGTQVTVSS”, the “polyreactivity (PSR sort gate)” value was “low polyreactivity”.

With “QVQLVESRGGLVQAGGSLRLSCAASGFIFDKYAMGWYRQAPGKERELVATITSGGSTYYADSVKGRFTISRDNAKNTVYLQMNSLKPEDTAVYYCAALDYGYRWYRYYYWGQGTQVTVSS”, the “polyreactivity (PSR sort gate)” value was “high polyreactivity”.

With “QVQIVESGGGLVQAGGSLRLSCASSGSTFVSYDMGWYRQAPGKERELVADISWSGVSTYADSVKGRFTISRDNAMNTVYLQMNSLKPEDTAVYYCAKDSDLYQRGGYYWGQGTQVTVSS”, the “polyreactivity (PSR sort gate)” value is given as “low polyreactivity”.

In the case of “QVQLVESGGGLVQAGGSLRLSCAASGLIFVYYAMGWYRQAPGKERELVAAITSRGGSTYYADSVKGRFTISRDNAKNTVYLQMNSLKPEDTAVYYCAAVYRHGAFPRYGYWGQGTQVTVSS”, the “polyreactivity (PSR sort gate)” value is “high polyreactivity”.

With “QVQLVESGGGLVQAGGSLRLSCAASGRTFPVYAMGWYRQAPGKEREFVAAISYRTGSTYYADSVKGRFTISRDHAKNTVYLQMNSLKPEDTAVYYCAARVSWYYTFYSWGQGTQVTVSS”, the “polyreactivity (PSR sort gate)” value is “high polyreactivity”.

In the case of “QDELVESGGGLVQAGGSLRLSCAASGRIFPFYAMGWNRQAPGKERDFVAAITYSGGNTNYADSVKGRFTISRDNAKNTVYLQMNSLKPEDTAVYYCAAVLGYGDYYQEDYWGQGTQVTVSS”, the “polyreactivity (PSR sort gate)” value was “low polyreactivity”.

On to “QVQLVESGGGLVQAGGSLRLSCAASGRIYNPNGMGWYRQAPGKERELVAVITRSGTSTYYADSVKGRFTISRDNAKNTVYLQMNSLKPEDTAVYYCNAGKKYVDYGGPSSRYYWGQGTQVTVSS”, for which the “polyreactivity (PSR sort gate)” value is listed as “low polyreactivity”.

On to “QVQLVESGGGLVQAGGSLRFSCAASGSTFGTYAMGWYRQAPGKERELVAAITSGGSTDYADSVKGRFTISRDNAKNTVYLQMNSLKPEDTAVYYCNATWELLSYYYLFWGYDYWGQGTQVTVSS”, for which the “polyreactivity (PSR sort gate)” value is reported as “low polyreactivity”.

Consider “QVQLVESGGGLVQAGGSLRLSCAASGSTFVGYAMGCYRQAPGKERELVATISWIGVRTYYADSVKGRFTISRDNAKNTVYLQMNSLKPEDTAVYYCANRKGYSARSFWRLYEPENDYWGQGTQVNVSS”, for which the “polyreactivity (PSR sort gate)” value is recorded as “high polyreactivity”.

On to “QVQLVESGGGLVQAGGSLRLSCAASGGTSIPYAMGWYRQAPGKERELVAAITRSGGRTYYADSVKGRFTISRDNAKNTVYLQMNSLKPEDTAVYYCAAAYYRWGYTVTVIKQFGYWGQGTQVTVSS”, for which the “polyreactivity (PSR sort gate)” value is “high polyreactivity”.

As for “QVQLVESGGGLVQAGGSLRLSCAASGFIIIGYFMGWYRQAPGKERELVAAITSSGGSTYYADSVKGRFTISRDNAKNTVYLQMNSLKPEDTAVYYCAARLYNSIYWGYYSWGPGTQVTVSS”, the “polyreactivity (PSR sort gate)” value was “low polyreactivity”.

Regarding “QVQLVESGGGLVQAGGSLRLSCAASGRTFFSNAMGWYRPAPGKERELVAAISNGDNTYYADSVKGRFTISRDNAKNTVYLQMNSLKPEDTAVYYCAADQYWSWIYYPVVEYDYWGQGTQVTVSS”, the “polyreactivity (PSR sort gate)” value is recorded as “low polyreactivity”.

As to “QVQLVESGGGLVQARGSLRLTCAASGNIFVSYAMGWYRPAPGKERELVAAISKRGGSTYYADSVKGRFTISRDNAKNTVDLQMISLKPEDTAVYYCAALGHVDDSIYDYWGQGTQVTVSS”, the “polyreactivity (PSR sort gate)” value is listed as “high polyreactivity”.

On to “QVQLVESGGGLVRARGSLRLSWAASGNTFSSNAMGWYRQAPGKERELVAGITKSGGRTYYADSVKGSFTISRDNAKNTVYLQMNSLKPEDTAVYYCNRRACPYSIPYYYWGQGTQVTVSS”, for which the “polyreactivity (PSR sort gate)” value is “high polyreactivity”.

As to “QVQLVESGGGLVQAGGSLRLSCAASGRTFTYYAMGWYRQAPGKERKLVAAISQRGGGTYYADSVKGRFTISRDNAKNTVYLQMNSLKPEDTAVYYCAARWRLSGYDYWGQGTQVTVSS”, the “polyreactivity (PSR sort gate)” value was “high polyreactivity”.

For “QVQLVESGGGLVQAGGSLRLSCAASGSTFDPNAMGWYRQAPGKERELVAVIDSGDGTTYYADSVKGRFTISRDNAKNTVYLQMNSLKPEDTAVYYCAVDESTSYYDDHEDYWGQGTQVTVSS”, the “polyreactivity (PSR sort gate)” value was “low polyreactivity”.

For “QVQLVESGGGLVQAGGSLRLSCAASGIILPYYAMGWYRQAPGKERELGASISYDGTSTYYADSVKGRFTISRDNAKNTVYLQMNSLKPEDTAVYYCAAVQWWPRASYSMDYWGQGTQVTASS”, the “polyreactivity (PSR sort gate)” value was “low polyreactivity”.

On to “QVQLVESGGGLVQAGGSLPLSCAASGSILYFYAMGWYRQSPGKERELVAAISWTGGSTYYADSVKGRFTISRDNAKNTVYLQMNSLKPEDTAVYYCAAELWYEGYDYWGQGTQVTVSS”, for which the “polyreactivity (PSR sort gate)” value is reported as “high polyreactivity”.

As for “QVQLQESGGGLVLAGGSLRLSCSASGNISVYGSMGWYRQAPGKEREFVATIDPGTNTNYADSVKDRFTISRDNAKNTVYLQMNTRKPEDTAVYYCAVEAGSDWPYRYWGQGTEVTVSS”, the “polyreactivity (PSR sort gate)” value was “low polyreactivity”.

For “QVQLVESGGGLVQAGGRLRLSCAASGRTFAYYAMGWYRQAPGKERELVASITTRDGSTYYADSVKGRFTISRDNAKNTVYLQMNSLKPEDTAVYYCAAATEYSSGYEYDYWGQGTQVTVSS”, the “polyreactivity (PSR sort gate)” value is on record as “low polyreactivity”.

Consider “QVQLVESGGGLVQAGGSLRLSCAASGRILYSYAMGWYRQEPGKERELVAAISSTGSTYYADSVKGRFTISRDNAKNTVYLQMISLKPEDTAVYYCAATFYPYQVHHYYYWGQGTQVTVSS”, for which the “polyreactivity (PSR sort gate)” value is on record as “low polyreactivity”.

On to “QVQLVESGGCLVQAVGSLRLSCAASAFTFTQYGRGWYRQASGKEREFVATIRFSGDTTYYADSVKRRFTITRDHAKNTAYLQMNRLKPEDPAVYYCNADNRAFFVYPGSNRYDSWGQGTQVTVSS”, for which the “polyreactivity (PSR sort gate)” value is listed as “low polyreactivity”.

For “QVQLVESAGGLVQAGGSLRLSCAASGFTFYRNAIGWYRQEPGTERELVAGITRSGGSTYYADSVKGRLTISRDNAKNTVYLQMNSLKPEDTAVYYCNKAFGGDKYSGTYDYWGQGTQVTVSS”, the “polyreactivity (PSR sort gate)” value is reported as “high polyreactivity”.

With “QVHLVESGGGLVQAGGSLRLSCAASGSTFRKYAMGWYRKAPGKERELDAAITSSGGRTYYADSVKGRFTISRDNAKNSVYLPLNSLKPEDTAVYYCAAGGPRFYSWRSEYDYWGQGTQVTVLS”, the “polyreactivity (PSR sort gate)” value was “high polyreactivity”.

For the sequence “QVQLVESAGGLVQAGASLRLSCAASGIIFTRYAMGWYRQPPGKESELVAAITRSSGSTYYADSVKGRFTISRDNAKNTVYLQMNSLKPEDSAVYYCAADWVSRYQARPYFSAFNYWGQGTQVTVSS”, the “polyreactivity (PSR sort gate)” value is reported as “high polyreactivity”.

Regarding “QVQLVESGGGLVQAGGSLRLSCAASGSIFTRYAMGWYRQAPGKERELVAAISWIGTRTYYADSVKGRFTISRDNAKNTVYLQMNSLKPEDTAVYYCNAVSKVERYSYPHGRPFEYWGQGTQVTVSS”, the “polyreactivity (PSR sort gate)” value is “high polyreactivity”.

Take “QVQLVESGGGLVQAGCSLRLSCAASGSTSAYYVMGWNRQAPGKARELVAAIDFSGDSTYYADSVKGRFTISRDNAKNTVYLQMNSLKPEDTAVYYCAAELFYYSSLVTYEYWGQGTQVTVSS”: the “polyreactivity (PSR sort gate)” value is reported as “high polyreactivity”.

For “QVQLVESGGGLVQAGGSLRLSSAATGSTSFQNAMGWYRQAPGKEREFVAAISGSGDRTNYADSVKGRFTISRDNAKNTVYLQMNSLIPEDTAVYYCAAVRGYPPTNYYYWGQGTQVTVSS”, the “polyreactivity (PSR sort gate)” value was “high polyreactivity”.

Regarding “QVQLVESGVGLVQAGGRLRLSCAASGRTFYYYAMGWYRQAAAKERELVAAITTDGGNTFYADSVKGRFTISRDNAKNSVYIQMNSLKPEDSAVYYWAKSDTEGYYWDVPVTFDYGGQGTQVTVSS”, the “polyreactivity (PSR sort gate)” value is on record as “low polyreactivity”.

With “QVQLVESGGGLVQAGGSLRLSCAASGSIFDHNAMGWYRQAPGKEREFVARITSSGGGTYYADSVKGRFTISRDNAKNTVYLQMNSLKPEDTAVYYCAKTYYRQGARYPTLFYYWGQGTQVTVSS”, the “polyreactivity (PSR sort gate)” value was “low polyreactivity”.

Turning to “QVQLVESGGGLVQAGGSLGLSCAASGRIFSRNAMGWYRQATGKEREFVAAISRRGTSTYYADSVKGRFTISRDNAMNTVYLQMNSLNPESTAVYYCNVDQWASQRYSRYDYWGQGTQVTVSW”, the “polyreactivity (PSR sort gate)” value is “high polyreactivity”.

For the sequence “QVQLVESGGGLLQARGSLRLTCAASGIIFIKYAMGWYRQPPGKDRELVASSTSGGSTHYADSVKGRFTISRDNAKNTVYLQMNSLIPEETSVYYCNADILRHDAYFKDRYQAGSYWGLGTQVTVSS”, the “polyreactivity (PSR sort gate)” value was “low polyreactivity”.

Regarding “QVQVVESGGGLVQAVGSLRLSCAASGRIFRGNAMGWDRQAPRKERELVAAISRRSGSTYYADSVKGRFTISRDNAKNTVYLQMNSLIPEDTAVYYCAATSSLGDFSYDSWGQGTQVTESS”, the “polyreactivity (PSR sort gate)” value was “high polyreactivity”.

In the case of “QVQLVESGGGLVQAGGSLRLSCDASGRHFKRYDMGWYRQAPGKERELVAAISWSGTSTHYADSVKGRLTISRDNAKNTVYLQMNSLKPEDTAVYYCAAYWFNTSYPGRYDYWGQGTQVTVSS”, the “polyreactivity (PSR sort gate)” value is “high polyreactivity”.

With “QVQLVESGGGLVQAGGSLRLSCAASGSTFGSNALGWYREAPAKERELVAAIDANCGSTYYADSVKGRFTISRDNAKNTVYLQMHSQKQEDTAVYYCAAAGYCYYYVPNDYWGQGTQVTVSS”, the “polyreactivity (PSR sort gate)” value was “low polyreactivity”.

On to “QVQLVESGGGLVQAGGSLRLSCAASGIIFPYYAMGWYRQAPGKERELVAAIDWSGTSTYYADSVKGRFTISRDNAKNTVYLQMNSLKPEDTAVYYCAADYPQAGLLYYYWGQGTQVTVSS”, for which the “polyreactivity (PSR sort gate)” value was “low polyreactivity”.

As to “QVQLQESGGGLVQAGGSLRRSCAATGSIFYRLKMGWHRQATGKERELVATIDPGSNTYYADSVKGSFTMSRDNAKNTVYPQMYSLKPEDTAVYYCAVSAHWTIHYYYWGQGTQVTVSS”, the “polyreactivity (PSR sort gate)” value is on record as “high polyreactivity”.

Turning to “QVQLVESGGGLVQAGGSLRLSCAASGRTFGYYAMGWYRQAPGKERELVAALSTSGGSTHYADSVKGRFTISRDNAKNTVSLQMNSLKPEDTAVYYCNARLRTGTPYKYVSYNSWGQGTQVTVSS”, the “polyreactivity (PSR sort gate)” value was “high polyreactivity”.

In the case of “QVQLVESGGGLVQAGGSLRLSCGASGTIFDYYVMGWYRQAPVKERELVAAISWSGASTYYADSVKGRFTISRDNAKNTVYLQMNSLKPDDTAVYYCAADYGVNTLIDYDYWGQGTQVTVSS”, the “polyreactivity (PSR sort gate)” value is reported as “low polyreactivity”.
